Legend:
[1] = target: cynomolgus monkey CCR8 (Chinese origin) (cynomolgus monkey); assay: flow cytometry on Cy CCR8+ CHO
[2] = target: cynomolgus monkey CCR8 (T4R), Mauritian origin (cynomolgus monkey); assay: flow cytometry on Cy CCR8 (T4R)+ CHO
[3] = target: CCR8 P_1-12 peptide construct (human); assay: flow cytometry, peptide construct on streptavidin beads
[4] = target: CCR8 P_1-35 peptide construct (full-length N-terminal peptide of human CCR8) (human); assay: as above
[5] = target: CCR8 P_13-24 peptide construct (human); assay: as above
[6] = target: CCR8 P_19-30 peptide construct (human); assay: as above
[7] = target: T1, CCR8 P_25-35 peptide construct (human); assay: as above
T1 sequence (chain, BAP biotinylated in vivo): CDAELIQTNGK

[8] = target: CCR8 P_7-18 peptide construct (human); assay: as above
human CD3 (human) [9] = target: human CD3 (human) (UniProt P07766); assay: flow cytometry on HPB-all
[10] = target: cynomolgus CD3 (cynomolgus) (UniProt Q95LI5); assay: flow cytometry on LnPx4119
human CD3 (human) [11] = target: human CD3 (human) (UniProt P07766); assay: flow cytometry on HUT-78 (CCR8+/CD3+)
human CCR8 (human) [12] = target: human CCR8 (human) (UniProt P51685); assay: flow cytometry on hu CCR8+ CHO
human CCR8 (human) [13] = target: human CCR8 (human) (UniProt P51685); assay: flow cytometry on HUT-78 (CCR8+/CD3+)
human CCR8 (human) [14] = target: human CCR8 (human) (UniProt P51685); assay: flow cytometry on HUT-78 (CCR8+/CD3-)

Sequence of anti-CCR8 antibody clone 433H (BD 747578) (VH): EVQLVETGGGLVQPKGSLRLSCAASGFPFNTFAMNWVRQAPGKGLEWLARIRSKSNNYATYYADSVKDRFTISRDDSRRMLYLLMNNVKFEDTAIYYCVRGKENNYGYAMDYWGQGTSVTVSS
Sequence of anti-CCR8 antibody clone 433H (BD 747578) (VL): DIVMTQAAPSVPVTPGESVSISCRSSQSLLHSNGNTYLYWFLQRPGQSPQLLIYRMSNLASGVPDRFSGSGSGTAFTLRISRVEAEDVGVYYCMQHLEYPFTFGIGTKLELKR
Sequence of human CD3 (human) (P07766 23-207): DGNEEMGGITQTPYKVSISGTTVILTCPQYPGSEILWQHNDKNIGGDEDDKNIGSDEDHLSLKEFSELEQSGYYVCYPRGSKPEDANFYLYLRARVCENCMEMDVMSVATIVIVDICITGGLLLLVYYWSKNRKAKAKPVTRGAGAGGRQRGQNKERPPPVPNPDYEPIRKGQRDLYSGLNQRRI
Sequence of cynomolgus CD3 (cynomolgus) (Q95LI5 22-198): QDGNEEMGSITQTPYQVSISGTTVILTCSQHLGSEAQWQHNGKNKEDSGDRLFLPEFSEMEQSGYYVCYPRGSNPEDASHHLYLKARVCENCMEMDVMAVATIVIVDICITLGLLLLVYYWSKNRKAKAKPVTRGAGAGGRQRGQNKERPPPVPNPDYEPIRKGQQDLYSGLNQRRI
Sequence of cynomolgus monkey CCR8 (Chinese origin) (cynomolgus monkey) (O97665 other isoform, or with tags, fused parts or gaps): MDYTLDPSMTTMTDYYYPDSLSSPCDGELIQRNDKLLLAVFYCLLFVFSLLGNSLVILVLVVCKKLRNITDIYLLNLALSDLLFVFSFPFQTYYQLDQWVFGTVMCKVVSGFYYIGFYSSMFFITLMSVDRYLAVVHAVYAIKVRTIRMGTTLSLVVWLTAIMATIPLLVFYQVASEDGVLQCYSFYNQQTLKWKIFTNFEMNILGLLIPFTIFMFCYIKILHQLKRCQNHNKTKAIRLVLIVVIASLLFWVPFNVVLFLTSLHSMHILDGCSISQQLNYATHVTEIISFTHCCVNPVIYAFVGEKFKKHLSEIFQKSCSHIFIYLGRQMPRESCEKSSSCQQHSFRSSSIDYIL
Sequence of cynomolgus monkey CCR8 (T4R), Mauritian origin (cynomolgus monkey) (O97665 other isoform, or with tags, fused parts or gaps): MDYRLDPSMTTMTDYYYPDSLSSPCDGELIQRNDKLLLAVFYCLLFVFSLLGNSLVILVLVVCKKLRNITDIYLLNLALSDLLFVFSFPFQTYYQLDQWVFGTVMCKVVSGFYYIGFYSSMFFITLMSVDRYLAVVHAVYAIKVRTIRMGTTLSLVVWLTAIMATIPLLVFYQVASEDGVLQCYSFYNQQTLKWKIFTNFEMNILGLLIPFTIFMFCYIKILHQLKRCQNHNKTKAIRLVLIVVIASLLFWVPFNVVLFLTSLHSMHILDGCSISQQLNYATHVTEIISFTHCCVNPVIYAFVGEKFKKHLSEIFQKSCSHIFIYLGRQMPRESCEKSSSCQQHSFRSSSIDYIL

Row | Substance | mean BL2 of the sample/mean BL2 of the secondary antibody control [1] | mean BL2 of the sample/mean BL2 of the secondary antibody control [2] | Median Fluorescence of Sample/Median Fluorescence of Negative Control [3] | Median Fluorescence of Sample/Median Fluorescence of Negative Control [4] | Median Fluorescence of Sample/Median Fluorescence of Negative Control [5] | Median Fluorescence of Sample/Median Fluorescence of Negative Control [6] | Median Fluorescence of Sample/Median Fluorescence of Negative Control [7] | Median Fluorescence of Sample/Median Fluorescence of Negative Control [8] | mean BL2 of the sample/mean BL2 of the secondary antibody control (human CD3 (human) [9]) | mean BL2 of the sample/mean BL2 of the secondary antibody control [10] | mean BL2 of the sample/mean BL2 of the secondary antibody control (human CD3 (human) [11]) | mean BL2 of the sample/mean BL2 of the secondary antibody control (human CCR8 (human) [12]) | mean BL2 of the sample/mean BL2 of the secondary antibody control (human CCR8 (human) [13]) | mean BL2 of the sample/mean BL2 of the secondary antibody control (human CCR8 (human) [14])
1 | anti-CCR8 antibody clone 433H (BD 747578) | 136 | 106 | 0.9 | 290 | 300 | 0.9 | 0.9 | 0.9 |  |  |  |  |  | 
2 | anti-FLAG antibody (clone M2, Sigma F3165/F1804) |  |  | 596 | 522 | 628 | 590 | 582 | 589 |  |  |  |  |  | 
3 | anti-V5 antibody (clone SV5-Pk1; AbD Serotec, MCA 1360) |  |  | 1090 | 953 | 1300 | 1020 | 1090 | 1090 |  |  |  |  |  | 

Second part, the substance after the results:

Row | mean BL2 of the sample/mean BL2 of the secondary antibody control [1] | mean BL2 of the sample/mean BL2 of the secondary antibody control [2] | Median Fluorescence of Sample/Median Fluorescence of Negative Control [3] | Median Fluorescence of Sample/Median Fluorescence of Negative Control [4] | Median Fluorescence of Sample/Median Fluorescence of Negative Control [5] | Median Fluorescence of Sample/Median Fluorescence of Negative Control [6] | Median Fluorescence of Sample/Median Fluorescence of Negative Control [7] | Median Fluorescence of Sample/Median Fluorescence of Negative Control [8] | mean BL2 of the sample/mean BL2 of the secondary antibody control (human CD3 (human) [9]) | mean BL2 of the sample/mean BL2 of the secondary antibody control [10] | mean BL2 of the sample/mean BL2 of the secondary antibody control (human CD3 (human) [11]) | mean BL2 of the sample/mean BL2 of the secondary antibody control (human CCR8 (human) [12]) | mean BL2 of the sample/mean BL2 of the secondary antibody control (human CCR8 (human) [13]) | mean BL2 of the sample/mean BL2 of the secondary antibody control (human CCR8 (human) [14]) | Substance
4 |  |  |  |  |  |  |  |  | 398 | 75 | 72 |  |  |  | control TCE molecule (CD3-based TCE molecule recognizing an irrelevant target antigen) (bispecific antibody)
5 |  |  | 0.9 | 751 | 285 | 0.9 | 0.9 | 0.9 |  |  |  | 40 | 9 | 6 | anti-CCR8 antibody clone L263G8 (BioLegend, 360602)

Reference: patent US20250129160A1
